Assay results reported in patent US20130005646A1 (Novo Nordisk, published 2013).
Starred links: 1 amine or outer side, 2 acyl side, 3 side chain; linkers in the order of their positions; H or OH if unused. Positions of bridges follow the written chain, without caps; N, C: chain ends. *: point of attachment. X1 = (S)‑4‑Carboxy‑4‑(19-carboxynonadecanoylamino)butyryl, O=C(O)CCCCCCCCCCCCCCCCCCC(=O)N[C@@H](CCC(=O)*)C(=O)O; C20 diacid = O=C(O)CCCCCCCCCCCCCCCCCCC(=O)*; γGlu = O=C(O)[C@H](CCC(=O)[*:2])N[*:1]

T1: rat calcitonin (a) receptor (rat, UniProt P32214 25-516)
T1 sequence (looked up): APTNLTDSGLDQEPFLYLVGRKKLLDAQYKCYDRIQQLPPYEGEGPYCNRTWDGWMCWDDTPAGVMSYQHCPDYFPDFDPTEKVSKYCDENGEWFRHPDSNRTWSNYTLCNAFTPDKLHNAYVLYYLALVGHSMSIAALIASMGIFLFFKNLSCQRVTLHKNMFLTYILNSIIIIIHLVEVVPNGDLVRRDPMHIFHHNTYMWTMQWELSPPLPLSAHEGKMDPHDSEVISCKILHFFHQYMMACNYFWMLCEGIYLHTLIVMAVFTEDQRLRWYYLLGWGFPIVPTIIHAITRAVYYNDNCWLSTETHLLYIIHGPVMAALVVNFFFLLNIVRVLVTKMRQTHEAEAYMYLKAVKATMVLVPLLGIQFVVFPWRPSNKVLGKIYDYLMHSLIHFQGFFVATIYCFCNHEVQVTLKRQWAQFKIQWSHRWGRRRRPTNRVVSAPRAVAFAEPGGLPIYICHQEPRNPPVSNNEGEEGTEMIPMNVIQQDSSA

T2: rat amylin 3(a) receptor (rat calcitonin(a) receptor + rat RAMP3) (rat, UniProt P32214 25-516; Q9JJ73 23-147)
T2 sequence (looked up) 1: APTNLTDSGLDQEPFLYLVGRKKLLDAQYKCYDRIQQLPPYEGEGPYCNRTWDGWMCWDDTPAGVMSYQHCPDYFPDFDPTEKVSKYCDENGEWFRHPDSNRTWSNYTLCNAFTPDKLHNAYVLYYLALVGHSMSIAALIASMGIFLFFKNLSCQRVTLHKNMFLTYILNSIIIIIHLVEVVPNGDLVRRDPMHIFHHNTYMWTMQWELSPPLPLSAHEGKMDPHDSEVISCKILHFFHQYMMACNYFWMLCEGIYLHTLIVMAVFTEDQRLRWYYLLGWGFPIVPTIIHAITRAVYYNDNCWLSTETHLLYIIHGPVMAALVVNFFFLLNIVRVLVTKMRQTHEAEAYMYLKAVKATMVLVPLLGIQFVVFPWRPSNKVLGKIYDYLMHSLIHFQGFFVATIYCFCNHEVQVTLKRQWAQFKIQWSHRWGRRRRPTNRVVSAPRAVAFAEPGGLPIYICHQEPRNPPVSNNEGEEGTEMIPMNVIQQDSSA
T2 sequence (looked up) 2: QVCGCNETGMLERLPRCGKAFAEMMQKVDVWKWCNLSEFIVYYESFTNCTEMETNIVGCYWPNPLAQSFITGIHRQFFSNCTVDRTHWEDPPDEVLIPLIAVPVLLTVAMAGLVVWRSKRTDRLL

T3: human calcitonin (a) receptor (human, UniProt P30988 25-474)
T3 sequence (looked up): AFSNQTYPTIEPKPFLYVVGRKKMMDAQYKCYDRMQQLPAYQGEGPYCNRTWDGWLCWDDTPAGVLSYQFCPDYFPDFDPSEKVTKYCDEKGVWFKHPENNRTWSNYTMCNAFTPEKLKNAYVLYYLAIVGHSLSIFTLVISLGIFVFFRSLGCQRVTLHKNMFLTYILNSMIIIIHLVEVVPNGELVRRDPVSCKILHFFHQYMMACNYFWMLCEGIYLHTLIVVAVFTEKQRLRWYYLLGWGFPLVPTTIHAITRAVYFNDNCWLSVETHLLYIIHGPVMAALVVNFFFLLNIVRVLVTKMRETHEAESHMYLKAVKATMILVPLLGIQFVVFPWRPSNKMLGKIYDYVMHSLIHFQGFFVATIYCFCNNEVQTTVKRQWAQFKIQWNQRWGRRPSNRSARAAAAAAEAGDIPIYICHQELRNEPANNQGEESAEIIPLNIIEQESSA

T4: human amylin 3(a) receptor (human calcitonin receptor + RAMP-3) (human, UniProt P30988 25-474; O60896 24-148)
T4 sequence (looked up) 1: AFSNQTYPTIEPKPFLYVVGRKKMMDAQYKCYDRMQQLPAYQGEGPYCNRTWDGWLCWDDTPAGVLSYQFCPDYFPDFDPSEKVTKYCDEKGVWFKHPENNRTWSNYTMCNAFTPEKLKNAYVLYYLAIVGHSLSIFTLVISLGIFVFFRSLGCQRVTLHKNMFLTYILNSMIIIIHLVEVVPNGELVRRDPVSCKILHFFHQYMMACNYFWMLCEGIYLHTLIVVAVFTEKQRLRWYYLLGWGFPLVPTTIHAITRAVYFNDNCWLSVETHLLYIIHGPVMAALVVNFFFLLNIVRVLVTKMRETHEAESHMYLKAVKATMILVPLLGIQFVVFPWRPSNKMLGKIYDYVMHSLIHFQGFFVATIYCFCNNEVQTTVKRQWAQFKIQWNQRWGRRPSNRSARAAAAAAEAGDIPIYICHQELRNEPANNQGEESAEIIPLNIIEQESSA
T4 sequence (looked up) 2: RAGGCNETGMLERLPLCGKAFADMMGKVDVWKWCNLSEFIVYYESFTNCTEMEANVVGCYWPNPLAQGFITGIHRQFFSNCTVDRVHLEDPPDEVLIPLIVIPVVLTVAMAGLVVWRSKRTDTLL


How the values were obtained:
Assay in all cases: cell-based or functional assay
[1] = target: T1, rat calcitonin (a) receptor
[2] = target: T2, rat amylin 3(a) receptor (rat …)
[3] = target: T3, human calcitonin (a) receptor
[4] = target: T4, human amylin 3(a) receptor (human …)

Row | Binder | CTa receptor rat EC50 [1] [nM] | Amylin receptor rat EC50 [2] [nM] | CTa receptor human EC50 [3] [nM] | Amylin receptor human EC50 [4] [nM]
1 | {C20 diacid-γGlu}-GHCNTATCATQRLAEFLRHSSNNFGPILPPTNVGSNTP-NH2 (disulfide 3-8; SMILES CC[C@H](C)[C@H](NC(=O)[C@@H]1CCCN1C(=O)CNC(=O)[C@H](Cc1ccccc1)NC(=O)[C@H](CC(N)=O)NC(=O)[C@H](CC(N)=O)NC(=O)[C@H](CO)NC(=O)[C@H](CO)NC(=O)[C@H](Cc1c[nH]cn1)NC(=O)[C@H](CCCNC(=N)N)NC(=O)[C@H](CC(C)C)NC(=O)[C@H](Cc1ccccc1)NC(=O)[C@H](CCC(=O)O)NC(=O)[C@H](C)NC(=O)[C@H](CC(C)C)NC(=O)[C@H](CCCNC(=N)N)NC(=O)[C@H](CCC(N)=O)NC(=O)[C@@H](NC(=O)[C@H](C)NC(=O)[C@@H]1CSSC[C@H](NC(=O)[C@H](Cc2c[nH]cn2)NC(=O)CNC(=O)CC[C@H](NC(=O)CCCCCCCCCCCCCCCCCCC(=O)O)C(=O)O)C(=O)N[C@@H](CC(N)=O)C(=O)N[C@@H]([C@@H](C)O)C(=O)N[C@@H](C)C(=O)N[C@@H]([C@@H](C)O)C(=O)N1)[C@@H](C)O)C(=O)N[C@@H](CC(C)C)C(=O)N1CCC[C@H]1C(=O)N1CCC[C@H]1C(=O)N[C@H](C(=O)N[C@@H](CC(N)=O)C(=O)N[C@H](C(=O)NCC(=O)N[C@@H](CO)C(=O)N[C@@H](CC(N)=O)C(=O)N[C@H](C(=O)N1CCC[C@H]1C(N)=O)[C@@H](C)O)C(C)C)[C@@H](C)O) | 0.114 | 0.151 | 0.0395 | 0.0255
2 | {C20 diacid-γGlu}-GRCNTATCATQRLAEFLHHSSNNFGPILPPTNVGSNTP-NH2 (disulfide 3-8; SMILES CC[C@H](C)[C@H](NC(=O)[C@@H]1CCCN1C(=O)CNC(=O)[C@H](Cc1ccccc1)NC(=O)[C@H](CC(N)=O)NC(=O)[C@H](CC(N)=O)NC(=O)[C@H](CO)NC(=O)[C@H](CO)NC(=O)[C@H](Cc1c[nH]cn1)NC(=O)[C@H](Cc1c[nH]cn1)NC(=O)[C@H](CC(C)C)NC(=O)[C@H](Cc1ccccc1)NC(=O)[C@H](CCC(=O)O)NC(=O)[C@H](C)NC(=O)[C@H](CC(C)C)NC(=O)[C@H](CCCNC(=N)N)NC(=O)[C@H](CCC(N)=O)NC(=O)[C@@H](NC(=O)[C@H](C)NC(=O)[C@@H]1CSSC[C@H](NC(=O)[C@H](CCCNC(=N)N)NC(=O)CNC(=O)CC[C@H](NC(=O)CCCCCCCCCCCCCCCCCCC(=O)O)C(=O)O)C(=O)N[C@@H](CC(N)=O)C(=O)N[C@@H]([C@@H](C)O)C(=O)N[C@@H](C)C(=O)N[C@@H]([C@@H](C)O)C(=O)N1)[C@@H](C)O)C(=O)N[C@@H](CC(C)C)C(=O)N1CCC[C@H]1C(=O)N1CCC[C@H]1C(=O)N[C@H](C(=O)N[C@@H](CC(N)=O)C(=O)N[C@H](C(=O)NCC(=O)N[C@@H](CO)C(=O)N[C@@H](CC(N)=O)C(=O)N[C@H](C(=O)N1CCC[C@H]1C(N)=O)[C@@H](C)O)C(C)C)[C@@H](C)O) | 0.044 | 0.075 | 0.0455 | 0.0515

Results, then the binder that gave them:

Row | CTa receptor rat EC50 [1] [nM] | Amylin receptor rat EC50 [2] [nM] | CTa receptor human EC50 [3] [nM] | Amylin receptor human EC50 [4] [nM] | Binder
3 | 0.215 | 0.138 | 0.18 | 0.136 | {C20 diacid-γGlu}-KCNTATCATQRLAEFLVHSSNNFGPILPPTNVGSHTY-NH2 (disulfide 2-7; SMILES CC[C@H](C)[C@H](NC(=O)[C@@H]1CCCN1C(=O)CNC(=O)[C@H](Cc1ccccc1)NC(=O)[C@H](CC(N)=O)NC(=O)[C@H](CC(N)=O)NC(=O)[C@H](CO)NC(=O)[C@H](CO)NC(=O)[C@H](Cc1c[nH]cn1)NC(=O)[C@@H](NC(=O)[C@H](CC(C)C)NC(=O)[C@H](Cc1ccccc1)NC(=O)[C@H](CCC(=O)O)NC(=O)[C@H](C)NC(=O)[C@H](CC(C)C)NC(=O)[C@H](CCCNC(=N)N)NC(=O)[C@H](CCC(N)=O)NC(=O)[C@@H](NC(=O)[C@H](C)NC(=O)[C@@H]1CSSC[C@H](NC(=O)[C@H](CCCCN)NC(=O)CC[C@H](NC(=O)CCCCCCCCCCCCCCCCCCC(=O)O)C(=O)O)C(=O)N[C@@H](CC(N)=O)C(=O)N[C@@H]([C@@H](C)O)C(=O)N[C@@H](C)C(=O)N[C@@H]([C@@H](C)O)C(=O)N1)[C@@H](C)O)C(C)C)C(=O)N[C@@H](CC(C)C)C(=O)N1CCC[C@H]1C(=O)N1CCC[C@H]1C(=O)N[C@H](C(=O)N[C@@H](CC(N)=O)C(=O)N[C@H](C(=O)NCC(=O)N[C@@H](CO)C(=O)N[C@@H](Cc1c[nH]cn1)C(=O)N[C@H](C(=O)N[C@@H](Cc1ccc(O)cc1)C(N)=O)[C@@H](C)O)C(C)C)[C@@H](C)O) [N-alpha-[(S)-4-Carboxy-4-(19-carboxynonadecanoylamino)butyryl]-[Glu14,His35]-pramlintide]
4 | 0.058 | 0.088 | 0.055 | 0.043 | {C20 diacid-γGlu}-RCNTATCATQRLAEFLHHSSNNFGPILPPTNVGSNTP-NH2 (disulfide 2-7; SMILES CC[C@H](C)[C@H](NC(=O)[C@@H]1CCCN1C(=O)CNC(=O)[C@H](Cc1ccccc1)NC(=O)[C@H](CC(N)=O)NC(=O)[C@H](CC(N)=O)NC(=O)[C@H](CO)NC(=O)[C@H](CO)NC(=O)[C@H](Cc1c[nH]cn1)NC(=O)[C@H](Cc1c[nH]cn1)NC(=O)[C@H](CC(C)C)NC(=O)[C@H](Cc1ccccc1)NC(=O)[C@H](CCC(=O)O)NC(=O)[C@H](C)NC(=O)[C@H](CC(C)C)NC(=O)[C@H](CCCNC(=N)N)NC(=O)[C@H](CCC(N)=O)NC(=O)[C@@H](NC(=O)[C@H](C)NC(=O)[C@@H]1CSSC[C@H](NC(=O)[C@H](CCCNC(=N)N)NC(=O)CC[C@H](NC(=O)CCCCCCCCCCCCCCCCCCC(=O)O)C(=O)O)C(=O)N[C@@H](CC(N)=O)C(=O)N[C@@H]([C@@H](C)O)C(=O)N[C@@H](C)C(=O)N[C@@H]([C@@H](C)O)C(=O)N1)[C@@H](C)O)C(=O)N[C@@H](CC(C)C)C(=O)N1CCC[C@H]1C(=O)N1CCC[C@H]1C(=O)N[C@H](C(=O)N[C@@H](CC(N)=O)C(=O)N[C@H](C(=O)NCC(=O)N[C@@H](CO)C(=O)N[C@@H](CC(N)=O)C(=O)N[C@H](C(=O)N1CCC[C@H]1C(N)=O)[C@@H](C)O)C(C)C)[C@@H](C)O) [N-alpha-[(S)-4-Carboxy-4-(19-carboxynonadecanoylamino)butyryl]-[Arg1,Glu14,His17,Pro37]-pramlintide]
5 | 0.128 | 0.217 | 0.0475 | 0.0325 | X1-HCNTATCATQRLAEFLRHSSNNFGPILPPTNVGSNTP-NH2 (disulfide 2-7; SMILES CC[C@H](C)[C@H](NC(=O)[C@@H]1CCCN1C(=O)CNC(=O)[C@H](Cc1ccccc1)NC(=O)[C@H](CC(N)=O)NC(=O)[C@H](CC(N)=O)NC(=O)[C@H](CO)NC(=O)[C@H](CO)NC(=O)[C@H](Cc1c[nH]cn1)NC(=O)[C@H](CCCNC(=N)N)NC(=O)[C@H](CC(C)C)NC(=O)[C@H](Cc1ccccc1)NC(=O)[C@H](CCC(=O)O)NC(=O)[C@H](C)NC(=O)[C@H](CC(C)C)NC(=O)[C@H](CCCNC(=N)N)NC(=O)[C@H](CCC(N)=O)NC(=O)[C@@H](NC(=O)[C@H](C)NC(=O)[C@@H]1CSSC[C@H](NC(=O)[C@H](Cc2c[nH]cn2)NC(=O)CC[C@H](NC(=O)CCCCCCCCCCCCCCCCCCC(=O)O)C(=O)O)C(=O)N[C@@H](CC(N)=O)C(=O)N[C@@H]([C@@H](C)O)C(=O)N[C@@H](C)C(=O)N[C@@H]([C@@H](C)O)C(=O)N1)[C@@H](C)O)C(=O)N[C@@H](CC(C)C)C(=O)N1CCC[C@H]1C(=O)N1CCC[C@H]1C(=O)N[C@H](C(=O)N[C@@H](CC(N)=O)C(=O)N[C@H](C(=O)NCC(=O)N[C@@H](CO)C(=O)N[C@@H](CC(N)=O)C(=O)N[C@H](C(=O)N1CCC[C@H]1C(N)=O)[C@@H](C)O)C(C)C)[C@@H](C)O) [N-alpha-[(S)-4-Carboxy-4-(19-carboxynonadecanoylamino)butyryl]-[His1,Glu14,Arg17,Pro37]-pramlintide]
